Results as given in paper PMC7176292.

Tests used:
[1] = target: human μ-opioid receptor (μOR), wild type, with HA signal sequence at the N terminus and LgBiT at the C terminus (modified pfastbac1) (human) (UniProt P35372); assay: split reporter (BiFC, NanoBiT); NanoBiT on Sf9 membranes co-expressing μOR-LgBiT, Gαi1, Gβ1-SmBiT and Gγ2, in PBS pH 7.4; dose-response of FD-3, 15 min at room temperature, luminescence; normalized to DAMGO
[2] = target: human μ-opioid receptor (μOR), wild type, with HA signal sequence at the N terminus and LgBiT at the C terminus (modified pfastbac1) (human) (UniProt P35372); assay: split reporter (BiFC, NanoBiT); NanoBiT on Sf9 membranes co-expressing μOR-LgBiT, Gαi1, Gβ1-SmBiT and Gγ2, in PBS pH 7.4; dose-response of fentanyl, 15 min at room temperature, luminescence; normalized to DAMGO

Chain of Gi protein complex (Gαi1, Gβ1 with SmBiT at the C terminus, Gγ2) (P63096 whole entry): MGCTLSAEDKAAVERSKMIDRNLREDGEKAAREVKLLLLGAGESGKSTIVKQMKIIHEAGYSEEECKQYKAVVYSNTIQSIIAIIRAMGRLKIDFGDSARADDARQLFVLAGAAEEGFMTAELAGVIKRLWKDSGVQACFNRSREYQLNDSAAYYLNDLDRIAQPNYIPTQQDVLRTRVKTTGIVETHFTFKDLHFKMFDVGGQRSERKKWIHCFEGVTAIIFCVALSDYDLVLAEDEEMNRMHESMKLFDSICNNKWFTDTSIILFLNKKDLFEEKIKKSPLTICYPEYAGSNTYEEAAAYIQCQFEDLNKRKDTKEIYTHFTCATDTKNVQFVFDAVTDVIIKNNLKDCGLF
Chain of Gi protein complex (Gαi1, Gβ1 with SmBiT at the C terminus, Gγ2) (P62873 whole entry): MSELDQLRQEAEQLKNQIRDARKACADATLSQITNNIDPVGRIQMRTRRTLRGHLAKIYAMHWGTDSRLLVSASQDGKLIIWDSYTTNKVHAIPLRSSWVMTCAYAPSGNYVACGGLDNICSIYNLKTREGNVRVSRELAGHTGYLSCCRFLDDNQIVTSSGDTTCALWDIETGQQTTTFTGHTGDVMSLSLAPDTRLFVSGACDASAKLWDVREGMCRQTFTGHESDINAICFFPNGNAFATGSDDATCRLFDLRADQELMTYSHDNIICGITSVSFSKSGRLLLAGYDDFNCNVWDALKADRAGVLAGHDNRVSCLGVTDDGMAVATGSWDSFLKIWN
Chain of Gi protein complex (Gαi1, Gβ1 with SmBiT at the C terminus, Gγ2) (P59768 whole entry): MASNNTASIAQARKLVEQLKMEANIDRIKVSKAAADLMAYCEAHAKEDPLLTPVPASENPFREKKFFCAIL

Substance: Gi protein complex (Gαi1, Gβ1 with SmBiT at the C terminus, Gγ2) (from UniProt P63096 1-354; P62873 1-340; P59768 1-71)
- maximal coupling efficiency relative to morphine [1]: 67%
- maximal Gi coupling (normalized to DAMGO) [2]: > 55%
